± gives the standard deviation of the averaged measurements.
B1: library; a variant is named by its letters at N, in order (parent)
chain: GCUGUCACCGGUGUAUUACCCUAGUGGUCGACCGGUCUGAUGAGUCUNNNNNNAGACGAAACAGC

Experiments:
[1] = variants of: B1; experiment: FACS-Seq fitted mean relative fluorescence mCherry/BFP without ligand (log10 relative fluorescence); ligand: hypoxanthine (xanthine aptamer); higher = higher reporter protein expression; details: HEK293T, ligand present: no
Method in brief: (§1)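 Fluorescence comes from a normal fit to bin counts, normalized against controls. HEK293T libraries lentivirally given a ribozyme-switch mCherry reporter and an EF1α-BFP marker were enriched, incubated 48 h with or without ligand, and sorted by mCherry/BFP into 6 bins. Bin genomic DNA was PCR-amplified, barcoded and sequenced on MiSeq. The log10(mCherry/BFP) mean was scaled to five spiked-in control ribozymes.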

[2] = variants of: B1; experiment: normalized RNA/DNA level with ligand (relative to sTRSVctl = 100) (log10 (% of sTRSVctl)); ligand: hypoxanthine (xanthine aptamer); higher = less ribozyme self-cleavage, higher mRNA level; details: ligand concentration (+) RNA-Seq: 5 mM, HEK293T, reporter: mCherry (pCS4076), ligand present: yes
Method in brief: (§2)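 Ribozyme switch library plasmids linked to reporters were introduced into HEK293T cells at 4 µg per 6-well well, with ligand, if any, added 1 h before. Total RNA was extracted with EDTA 72 h later, reverse-transcribed, amplified, barcoded and sequenced. RNA level was computed from RNA over DNA reads relative to a spiked-in non-cleaving sequence or the top sequences, then scaled and log-transformed. The top set was 25 sequences, values were ×100 and log10, and the cutoff was ≥100 DNA reads.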

[3] = variants of: B1; experiment: normalized RNA/DNA level without ligand (relative to sTRSVctl = 100) (log10 (% of sTRSVctl)); ligand: hypoxanthine (xanthine aptamer); higher = less ribozyme self-cleavage, higher mRNA level; details: HEK293T, reporter: mCherry (pCS4076), ligand present: no
Method in brief: as §2

[4] = variants of: B1; experiment: FACS-Seq fitted mean relative fluorescence mCherry/BFP with ligand (log10 relative fluorescence); ligand: hypoxanthine (xanthine aptamer); ligand concentration (+) FACS-Seq: 5 mM; higher = higher reporter protein expression; details: HEK293T, ligand present: yes
Method in brief: as §1

Variant | FACS-Seq fitted mean (log10) [1] | normalized RNA/DNA level with ligand (log10) [2] | normalized RNA/DNA level without ligand (log10) [3] | FACS-Seq fitted mean (log10) [4]
GCUGUCACCGGUGUAUUACCCUAGUGGUCGACCGGUCUGAUGAGUCUUCAGGAAGACGAAACAGC | 0.301 ± 0.039 | 1.89 ± 0.02 | 1.44 ± 0.047 | 0.6634 ± 0.0026
GCUGUCACCGGUGUAUUACCCUAGUGGUCGACCGGUCUGAUGAGUCUUCAGGGAGACGAAACAGC | 0.486 ± 0.02 | 1.951 ± 0.015 | 1.69 ± 0.065 | 0.704 ± 0.067
GCUGUCACCGGUGUAUUACCCUAGUGGUCGACCGGUCUGAUGAGUCUACAGCGAGACGAAACAGC | 0.12 ± 0.062 | 1.92 ± 0.028 | 1.67 ± 0.0018 | 0.456 ± 0.065
GCUGUCACCGGUGUAUUACCCUAGUGGUCGACCGGUCUGAUGAGUCUACAUAAAGACGAAACAGC | 0.531 ± 0.011 | 1.899 ± 0.0086 | 1.79 ± 0.021 | 0.532 ± 0.029
GCUGUCACCGGUGUAUUACCCUAGUGGUCGACCGGUCUGAUGAGUCUGCAUAAAGACGAAACAGC | 0.705 ± 0.011 | 1.92 ± 0.03 | 1.801 ± 0.015 | 0.6261 ± 0.0017
GCUGUCACCGGUGUAUUACCCUAGUGGUCGACCGGUCUGAUGAGUCUACAGGUAGACGAAACAGC | 0.51 ± 0.04 | 1.858 ± 0.0068 | 1.49 ± 0.082 | 0.744 ± 0.054
GCUGUCACCGGUGUAUUACCCUAGUGGUCGACCGGUCUGAUGAGUCUACAGGAAGACGAAACAGC | 0.278 ± 0.028 | 1.905 ± 0.013 | 1.66 ± 0.043 | 0.473 ± 0.069
GCUGUCACCGGUGUAUUACCCUAGUGGUCGACCGGUCUGAUGAGUCUACAGGGAGACGAAACAGC | 0.428 ± 0.034 | 1.83 ± 0.038 | 1.44 ± 0.032 | 0.788 ± 0.041
GCUGUCACCGGUGUAUUACCCUAGUGGUCGACCGGUCUGAUGAGUCUCCAGCCAGACGAAACAGC | -0.754 ± 0.048 | 2 ± 0.026 | 1.916 ± 0.013 | -0.409 ± 0.044
GCUGUCACCGGUGUAUUACCCUAGUGGUCGACCGGUCUGAUGAGUCUUCAGCGAGACGAAACAGC | 0.383 ± 0.009 | 1.94 ± 0.067 | 1.8203 ± 0.0012 | 0.656 ± 0.083
GCUGUCACCGGUGUAUUACCCUAGUGGUCGACCGGUCUGAUGAGUCUACAGAUAGACGAAACAGC | 0.263 ± 0.00091 | 1.89 ± 0.033 | 1.64 ± 0.049 | 0.461 ± 0.069
GCUGUCACCGGUGUAUUACCCUAGUGGUCGACCGGUCUGAUGAGUCUGCAGUGAGACGAAACAGC | 0.155 ± 0.01 | 1.87 ± 0.075 | 1.4 ± 0.064 | 0.533 ± 0.039
GCUGUCACCGGUGUAUUACCCUAGUGGUCGACCGGUCUGAUGAGUCUGCAGUCAGACGAAACAGC | 0.791 ± 0.051 | 1.94 ± 0.047 | 1.71 ± 0.047 | 0.764 ± 0.064
GCUGUCACCGGUGUAUUACCCUAGUGGUCGACCGGUCUGAUGAGUCUGCAGGGAGACGAAACAGC | -0.0762 ± 0.0096 | 1.88 ± 0.028 | 1.506 ± 0.0099 | 0.479 ± 0.017
GCUGUCACCGGUGUAUUACCCUAGUGGUCGACCGGUCUGAUGAGUCUGCAGGAAGACGAAACAGC | 0.661 ± 0.024 | 1.9091 ± 0.0012 | 1.72 ± 0.035 | 0.705 ± 0.051
GCUGUCACCGGUGUAUUACCCUAGUGGUCGACCGGUCUGAUGAGUCUACAGUUAGACGAAACAGC | -0.0389 ± 0.048 | 1.914 ± 0.0073 | 1.73 ± 0.021 | 0.0577 ± 0.038
GCUGUCACCGGUGUAUUACCCUAGUGGUCGACCGGUCUGAUGAGUCUACAGUCAGACGAAACAGC | 0.656 ± 0.012 | 1.924 ± 0.0022 | 1.951 ± 0.0032 | 0.657 ± 0.04
GCUGUCACCGGUGUAUUACCCUAGUGGUCGACCGGUCUGAUGAGUCUGCAGCCAGACGAAACAGC | 0.465 ± 0.1 | 1.99 ± 0.044 | 1.78 ± 0.023 | 0.532 ± 0.069
GCUGUCACCGGUGUAUUACCCUAGUGGUCGACCGGUCUGAUGAGUCUGCAGCAAGACGAAACAGC | 0.363 ± 0.034 | 1.983 ± 0.0069 | 1.827 ± 0.016 | 0.663 ± 0.015
GCUGUCACCGGUGUAUUACCCUAGUGGUCGACCGGUCUGAUGAGUCUUCAGUUAGACGAAACAGC | -0.0872 ± 0.018 | 1.96 ± 0.046 | 1.87 ± 0.04 | 0.0688 ± 0.016
GCUGUCACCGGUGUAUUACCCUAGUGGUCGACCGGUCUGAUGAGUCUUCAGUAAGACGAAACAGC | 0.09 ± 0.0096 | 1.92 ± 0.069 | 1.797 ± 0.013 | 0.386 ± 0.036

Reference: the supplement of paper PMC6757056
